In data set [1] the test system is recombinant human MCP-1 N1pE (human MCP-1 with an N-terminal pyroglutamate).
Data set [2] relates to recombinant human MCP-1(1-76) starting with an N-terminal glutamine.

In the case of “recombinant human Aminopeptidase P (R&D Systems)”, the “N-terminal cleavage, Maldi-TOF mass spectrometry” value in data set [1] was “conferring resistance against N-terminal degradation by post-proline cleaving enzymes, e.g. DP4 and aminopeptidase P”; in data set [2] it was “cleavage of human MCP-1(1-76) bearing an N-terminal glutaminyl residue by recombinant human Aminopeptidase P”.

(Values after US20110212853.)
